B1: Hairpin Ribozyme (parent)
chain: GUCCUCUUUCACGUGCGCGUGAAAGAGAGAAGUGAACCAGAGAAACACACGUUGUGGUAUAUUACCUGGUA

Variants of: B1
Assay: self-cleavage, relative activity (ratio to wild type); higher = more cleavage; co-transcriptional

In order of falling self-cleavage:
1. U9C A71C  1.24
2. A28U G34C  1.23
3. G51A C65A  1.17
4. G34U C50A  1.13
5. G17U U58C  1.13
6. G19A A41U  1.11
7. A24U U60C  1.09
8. C16U U53G  1.05
9. U14G G51U  1.02
10. G51A U52G  0.981
11. G34U U52C  0.926
12. U8G C16U  0.916
13. U7G A35G  0.916
14. A23U G51C  0.832
15. C18G U53G  0.819
16. C10U U14A  0.811
17. C10A U52C  0.81
18. G17A G21A  0.792
19. C10U G51C  0.783
20. U7A G13C  0.778
21. U7A G13U  0.774
22. U9C U60A  0.769
23. C12G U58C  0.762
24. A23U U60C  0.749
25. U9C A26G  0.747
26. U9A C10A  0.743
27. U20G A23U  0.712
28. A39U A71C  0.694
29. U7C A23U  0.694
30. U9A A35C  0.69
31. G13A G51C  0.68
32. U7C U53C  0.677
33. U9A C12U  0.645
34. U20G G25U  0.64
35. A39U G51U  0.632
36. A23G A35U  0.626
37. G13A U58A  0.574
38. A24C G54A  0.547
39. C6A C12A  0.52
40. G19A C38U  0.508
41. U7G A36U  0.507
42. C50G G54A  0.487
43. C16G A28U  0.483
44. A24U C38U  0.471
45. G21U A36C  0.463
46. G21U C66U  0.427
47. C6A U9A  0.417
48. U8A A39C  0.396
49. U14G A39C  0.393
50. C6G G13C  0.381
51. C16G A39C  0.374
52. A23C C50U  0.373
53. G15U U67G  0.364
54. C10G G25C  0.358
55. C10A C50U  0.349
56. C18U G69C  0.334
57. C37G U60C  0.331
58. A36G A61C  0.328
59. U2G A28U  0.32
60. G1C G69C  0.303
61. A49C A71C  0.291
62. A36C A49G  0.28
63. U2G U14C  0.277
64. C12U G68U  0.27
65. U9A G17C  0.261
66. A64C G68U  0.26
67. C3G A36G  0.255
68. C4U A39C  0.251
69. C6U G68U  0.239
70. G32C U70C  0.234
71. C18U G57U  0.234
72. G56C U58G  0.234
73. C4U G15C  0.232
74. C4G G21C  0.231
75. G29U A61G  0.223
76. G42U U60G  0.218
77. A30G A71C  0.217
78. G19U U67C  0.214
79. A24G C66A  0.214
80. C16A G56C  0.212
81. A43G U58G  0.212
82. G1C U70A  0.208
83. A24U U67C  0.207
84. A28U C48G  0.195
85. C4G C18A  0.194
86. C12G C48U  0.193
87. G32U A35U  0.191
88. C4U U63C  0.191
89. C50U U62A  0.185
90. A24C U63C  0.184
91. G57C U70A  0.184
92. G15C C50G  0.184
93. U33A C37G  0.182
94. G19A G32U  0.175
95. A30U G57U  0.175
96. G32C A39U  0.174
97. C50U U63A  0.172
98. C12A A30U  0.172
99. A11C C38A  0.171
100. A43C U70C  0.164
101. U33C G54C  0.163
102. U2G A39U  0.162
103. U8C U67C  0.159
104. A35G C66A  0.156
105. G42C G56A  0.155
106. U60C U62G  0.155
107. A43G C46A  0.153
108. G19C A59G  0.153
109. C48G G57A  0.151
110. A36G C38A  0.146
111. U5C C66A  0.143
112. G32A A45U  0.143
113. A59U U67A  0.141
114. G19A G57C  0.138
115. A36C A45G  0.133
116. U5G C38G  0.133
117. U9C U63C  0.133
118. A30G A47U  0.131
119. A39U A43C  0.129
120. C3G A64C  0.129
121. A47U U55G  0.128
122. G32C A43U  0.127
123. U8C A43C  0.126
124. C37U A43C  0.126
125. G21A A59G  0.125
126. G13A C46A  0.124
127. G29U C48U  0.124
128. G21U A47U  0.123
129. U5G A45C  0.122
130. G27C U33C  0.117
131. C10G A45C  0.114
132. U62A G69C  0.113
133. G57A U70G  0.111
134. A30C G42U  0.111
135. G1U A23U  0.11
136. G1U G29C  0.109
137. G51U A61C  0.109
138. G40A U67A  0.108
139. C6G A30U  0.105
140. A26G G32A  0.103
141. A47G G56A  0.103
142. C3G G68U  0.102
143. U55C A64C  0.102
144. G40U C65G  0.099
145. A11U C46U  0.0973
146. C48U U53A  0.0973
147. C18U C48G  0.0965
148. U8C A61C  0.0941
149. U33G A36C  0.0918
150. C6G A43U  0.0915
151. A47G U67G  0.0884
152. U33A U53G  0.0866
153. G17U A44U  0.0838
154. A31C C65U  0.0838
155. U14G U55A  0.0772
156. G32C U62G  0.0745
157. A23G A59C  0.0706
158. G29U A59C  0.0619
159. A31U A43U  0.0597
160. G1C C37A  0.0534
161. U62G U63A  0.0488
162. A45C A49G  0.0463
163. G27C A30C  0.0463
164. C3U A44C  0.0442
165. U33G G69C  0.038
166. C16U A44C  0.0379
167. G40C A47U  0.0303
